In patent US7074560B2, “Purification of tissue plasminogen activator (tPA)” (Dyax Corp., priority 1996, dated 2006):
Positions of bridges follow the written chain, without caps; N, C: chain ends. No end group written: not given here.

Molecular target: tPA (Homo sapiens, UniProt P00750)
Test: 15-amino acid segment bound to a chromatographic support: tPA binding
Settings: initial studies
From the text: As noted above, almost all of the variegation in amino acid positions used in building the CMTI library occurred between two cyteines at positions 3 and 10 of CMTI-I (see Table 3). In the parental CMTI protein, these cysteines form disulfide bonds with other cysteine residues elsewhere in the protein (see SEQ ID NO: 1), however with the successful isolation of affinity ligands from the CMTI library, a secondary library was conceptualized which was based on variegating a truncated 15-amino acid segment of the isolate #109 (see amino acids 1–15 of SEQ ID NO: 12). If the C3 and C10 cysteines of these members formed a disulfide bond, then a constrained loop having tPA binding properties might be obtained.

tPA, sequence (P00750 36-562): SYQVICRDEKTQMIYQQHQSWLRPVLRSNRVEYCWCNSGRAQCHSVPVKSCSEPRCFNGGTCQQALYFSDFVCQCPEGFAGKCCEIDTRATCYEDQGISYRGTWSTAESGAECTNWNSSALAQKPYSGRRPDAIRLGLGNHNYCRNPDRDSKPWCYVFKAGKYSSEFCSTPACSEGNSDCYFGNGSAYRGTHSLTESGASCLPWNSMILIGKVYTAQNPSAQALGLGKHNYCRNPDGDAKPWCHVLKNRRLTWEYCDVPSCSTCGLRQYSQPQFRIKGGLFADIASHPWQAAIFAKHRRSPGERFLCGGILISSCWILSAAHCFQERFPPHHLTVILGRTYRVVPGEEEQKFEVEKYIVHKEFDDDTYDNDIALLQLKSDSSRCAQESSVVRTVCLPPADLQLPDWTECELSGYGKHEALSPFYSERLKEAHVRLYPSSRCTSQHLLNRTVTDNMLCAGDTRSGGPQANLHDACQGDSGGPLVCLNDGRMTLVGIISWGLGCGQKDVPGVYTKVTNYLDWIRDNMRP

“15-amino acid segment derived from affinity ligand isolate #109: truncated 15-amino acid segment of isolate #109 (amino acids 1–15 of SEQ ID NO: 12), C3–C10 disulfide loop (RLCPKTDLGCMKDSD; disulfide 3-10)” was tested, and the “binding of the immobilized C3–C10 loop to tPA” value was “bound to tPA”.
